Data as given in paper PMC7616709 (Molecular cell, 2024).

Molecular target: the molecule itself

B1: WDR26 (subunit of the recombinant WDR26-CTLH E3) (natural protein, human, UniProt Q9H7D7 1-661, looked up)
chain: MQANGAGGGGGGGGGGGGGGGGGGGQGQTPELACLSAQNGESSPSSSSSAGDLAHANGLLPSAPSAASNNSNSLNVNNGVPGGAAAASSATVAAASATTAASSSLATPELGSSLKKKKRLSQSDEDVIRLIGQHLNGLGLNQTVDLLMQESGCRLEHPSATKFRNHVMEGDWDKAENDLNELKPLVHSPHAIVVRGALEISQTLLGIIVRMKFLLLQQKYLEYLEDGKVLEALQVLRCELTPLKYNTERIHVLSGYLMCSHAEDLRAKAEWEGKGTASRSKLLDKLQTYLPPSVMLPPRRLQTLLRQAVELQRDRCLYHNTKLDNNLDSVSLLIDHVCSRRQFPCYTQQILTEHCNEVWFCKFSNDGTKLATGSKDTTVIIWQVDPDTHLLKLLKTLEGHAYGVSYIAWSPDDNYLVACGPDDCSELWLWNVQTGELRTKMSQSHEDSLTSVAWNPDGKRFVTGGQRGQFYQCDLDGNLLDSWEGVRVQCLWCLSDGKTVLASDTHQRIRGYNFEDLTDRNIVQEDHPIMSFTISKNGRLALLNVATQGVHLWDLQDRVLVRKYQGVTQGFYTIHSCFGGHNEDFIASGSEDHKVYIWHKRSELPIAELTGHTRTVNCVSWNPQIPSMMASASDDGTVRIWGPAPFIDHQNIEEECSSMDS
notes: WDR26, human, from human cDNA library (pFLN WDR26); The models 8QE8 and 8QBN exclude the CTLH-CRA^N domain of WDR26; also called WDR26 dimer
stoichiometry N: 2
